Results as given in the Human Domainome abundance scans (Beltran et al. 2025).

B1: Zinc finger homeobox protein 4, residues 2562 to 2617; numbered along this chain, Q86UP3 (parent)
chain: RLRTTITPEQLEILYEKYLLDSNPTRKMLDHIAREVGLKKRVVQVWFQNTRARERK

Variants of: B1
Assay: abundance fitness (aPCA) (normalised: wild type 0, dead -1); higher = more abundant; growth selection in yeast, the domain comes from the species named
Settings: Homo sapiens

Abundance fitness: each site, then its substitutions
Y18: W -0.31, A -1.06, C -0.817, T -0.874, M -0.856, S -0.975, N -0.59, I -0.246, E -0.943, V -0.764, H -0.773, D -1.13, L -0.439, K -0.544, P -0.842, Q -0.839, R -0.659, F 0.425
Y15: F -0.193, V -0.206, C -0.063, G 0.009, T 0.067, N 0.075, A -0.105, W 0.048, L 0.054, P -0.781, D -0.02, I -0.224, H 0.085, K 0.1, Q 0.092, R 0.161, E 0.301
M28: H -0.305, P -1.06, R -0.297, G -0.108, F -0.591, K -0.582, I -0.101, T -0.003, E -0.003, W -0.577, S -0.152, Y -0.406, L -0.102, V -0.119, C -0.067, Q -0.067, N -0.409, D 0.242
N23: V -0.356, M -0.105, R 0.017, D -0.039, H -0.302, I -0.091, G -0.121, F 0.301, A -0.064, K -0.054, W -0.208, S -0.1, Y -0.062, E -0.086, C -0.738, L -0.238, P -0.425, T -0.213, Q 0.013
P24: Q -0.929, V -0.82, N -0.754, R -0.925, F -0.503, T -0.947, S -0.968, G -0.852, E -0.976, I -0.415, L -0.639, A -0.861, C -0.777, H -0.847, K -0.948, D -0.679, M -0.687
K17: A -0.289, L -0.508, P -0.334, W -0.58, R -0.258, M -0.024, S -0.164, G -0.513, N 0.008, H -0.441, E -0.081, Q -0.033, T -0.109, V -0.552, Y 0.767
L11: P -1.05, W -0.203, N -0.189, S -0.082, Y -0.159, C -0.85, D 0.108, H -0.01, R -0.043, E 0.092, A -0.059, G -0.017, T 0.215, K -0.05, Q 0.017, M -0.062, V 0.123, I -0.037
L19: Q -0.214, Y -0.153, P -0.897, F -0.065, A -0.094, G -0.023, S -0.034, N -0.091, T -0.175, C -0.084, W -0.229, K -0.154, I 0.196, M -0.131, D -0.098, V -0.055, E -0.136, R -0.112
K27: W -0.302, G 0.074, I -0.245, Y -0.142, D 0.478, P 0.128, A 0.169, M -0.206, S 0.074, V 0.099, N -0.112, T -0.147, F -0.265, L -0.019, H 0.083, C -0.096, Q 0.082, R -0.475, E 0.147
I13: M -0.088, P -0.68, V -0.072, L -0.097, H -0.588, F -0.084, G -0.235, N -0.161, C -0.389, Y -0.017, R -0.003, E -0.06, K 0.173, S -0.041, D -0.535, W -0.246, T -0.139, A 0.003, Q 0.167
L20: M -0.112, A -0.103, E -0.092, F -0.062, S -0.193, D -0.333, G -0.114, K 0.035, R -0.162, N -0.122, V -0.02, W -0.124, T -0.19, I -0.079, P -0.652, Q -0.182, C -0.236
S22: V -0.403, P -0.402, M -0.155, E 0.248, K -0.305, N -0.429, F -0.168, G -0.059, D 0.035, W -0.461, Y -0.772, C -0.075, T -0.078, I -0.436, R -0.358, L -0.56, H -0.289
R26: Q 0.369, V 0.223, D 0.285, P -0.236, E 0.171, Y 0.867, T 0.52, L 0.24, N 1.41, H -0.017, G -0.143, W 0.237, M -0.092, I 0.917, S 0.142, K 0.1
E9: V -0.157, R -0.005, Y -0.297, T -0.105, L -0.202, M -0.171, H -0.257, A -0.069, Q -0.152, S -0.173, C -0.417, G -0.159, F -0.399, N -0.141, D 0.038, P -0.178
T25: G -0.331, R -0.72, L -0.546, C 0.181, A -0.384, P -0.147, N -0.148, H -0.596, D -0.193, E 0.095, S -0.056, M -0.364, Q -0.476, I -0.526
P8: T -0.452, W -0.177, Y -0.643, S -0.413, V 0.168
L14: M -0.225, P -0.658, N 0.341, T -1, W -1.16, F -0.718, G -0.773, S -0.998, Q -0.959, H -0.846, C -1.16, K -1.05, D -0.754, R -0.849, Y -0.867, E -0.924, V -0.945, A -0.765
E12: M -0.075, W -0.496, L -0.002, T 0.164, R 0.007, K 0.238, A 0.01, C -0.224, N -0.075, V -0.062, Q 0.033, P -0.659, S 0.048, H -0.307, F 0.083, D -0.05, G -0.039, Y -0.435, I 0.294
D21: S -0.433, G -0.433, K -0.727, W -0.505, M -0.673, A -0.435, C -0.378, N -0.188, Q -0.352, R -0.796, V -0.465, P -0.769, F -0.302, Y -0.5, I -0.406, E 0.078, T -0.458, L -0.474
Q10: V -0.283, D 0.18, W -0.695, P -0.869, C -0.847, G -0.695, E -0.641, H -0.466, Y -0.856, K -0.524, M -0.326, T -0.587, S -0.603, I -0.086, F -0.941, N -0.651
